From publication PMC9584609

Target: T1, Kir2.1 tagged with mVenus and PAmCherry (human), P63252
T1 chain: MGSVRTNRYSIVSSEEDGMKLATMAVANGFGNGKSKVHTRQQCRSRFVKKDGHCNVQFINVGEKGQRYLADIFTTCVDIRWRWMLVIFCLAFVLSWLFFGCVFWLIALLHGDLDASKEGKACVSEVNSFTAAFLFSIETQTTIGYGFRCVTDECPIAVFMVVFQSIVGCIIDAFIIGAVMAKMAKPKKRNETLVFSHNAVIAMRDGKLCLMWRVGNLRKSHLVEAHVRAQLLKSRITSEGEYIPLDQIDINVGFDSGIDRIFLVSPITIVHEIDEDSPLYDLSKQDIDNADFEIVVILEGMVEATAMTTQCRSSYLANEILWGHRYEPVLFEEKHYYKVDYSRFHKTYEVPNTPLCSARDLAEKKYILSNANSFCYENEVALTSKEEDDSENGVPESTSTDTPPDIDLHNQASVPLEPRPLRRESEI
Assay: native gel or EMSA; high-resolution clear native electrophoresis (hrCNE); lysate of transfected HEK293T cells in 0.1 M sodium phosphate with 0.5% digitonin or 20 mM DDM; 4-14% acrylamide gradient gel run at 4 °C; mVenus fluorescence scanned; VGLUTs and sialin with and without PNGaseF
Conditions: remark: other sources report otherwise

stoichiometry N: 4
B1: Kir2.1 tagged with mVenus and PAmCherry, P63252 1-427 (natural protein)
chain: T1 chain
